In US20220098328A1, “ANTIBODIES TO M(H)DM2/4 AND THEIR USE IN DIAGNOSING AND TREATING CANCER” (NomoCan Pharmaceuticals LLC, priority 2017, published 2022):

Key:
[1] = test system: mouse colon cancer MC-38 cells; assay: MC-38 syngeneic mouse model of colon cancer; format: in vivo; conditions: for reduction in tumor volume over the same time period: 0.4 mg/kg i.p. 3 times a week for 3 weeks
Protocol: Methodology used (Syngeneic Mouse Models of lung, colon and pancreatic cancer): To investigate the anti-tumor effects of HDM2-specific antibodies on lung, colon and pancreatic tumors in vivo, three well-known syngeneic mouse models of lung, colon and pancreatic cancer were used (Sharma et al., 1999, J. Immunol. 163 (9):5020-5028; McIntyre, 2015, Bioassays 37(8):909-920; Li, et al., 2015, Sci. Rep. 5:7856). Subcutaneous tumors were prepared by implanting either mouse Lewis Lung cancer LL/2 cells (2.5×10^5 cells/mouse), mouse colon cancer MC-38 cells (5×10^5 cells/mouse) or mouse pancreatic cancer Panc-2 cells (2×10^6 cells/mouse) in the right flanks of 8-week-old female C57BL/6 mice (n=6-7). The mice were returned to their respective cages after tumor implantation. From day 7 after tumor implantation, the tumor volumes were measured 2 times/week with a digital caliper. In the case of MC-38 and Panc-2 study, treatment started when the tumors reached an average of 70-80 mm^3. In the case of LL/2 study, tumor cell inoculation and treatment were initiated simultaneously. Mice were micro-chipped and registered following tumor implantation. Tumor volume measurements and body weights were recorded and mice were randomized into groups that received: A) mAb NMC-103 at 0.4 mg/kg (3 times a week for 3 weeks), 2 mg/kg (2 times a week for 3 weeks), or 4 mg/kg (2 times a week for 3 weeks); B) NMC-204 at 0.4 mg/kg (3 times a week for 3 weeks); C) isotype control mouse IgG1 (Abcam, Cat. No. ab18447) or IgG3 (Abcam, Cat. No. ab18392) at 0.4 mg/kg (3 times a week for 3 weeks) or 4 mg/kg (2 times a week for 3 weeks); D) Gemcitabine (25 mg/kg) and nab-paclitaxel (5 mg/kg) 2 times a week for 3 weeks; or E) a combination of gemcitabine (25 mg/kg), nab-paclitaxel (5 mg/kg) and mAb NMC-103 (2 mg/kg; 2 times a week for 3 weeks) or ([…]; […]). All tumors were injected subcutaneously and all treatments were performed by intraperitoneal injection. Any mouse displaying prolonged adverse clinical signs, or with body weight loss exceeding 15% relative to body weight at day 0, was euthanized. Tumor measurements from post-treatment with HDM2-specific antibodies versus isotype control mouse antibodies versus standard of care treatment (gemcitabine and nab-paclitaxel) were made, and results are presented in FIGS. 16-19.

[2] = molecular target: T1, recombinant HDM2 protein (GST tagged) (Homo sapiens, UniProt Q00987); assay: Western blot (immunoblot); format: binding; conditions: 1 μg/well protein, antibody 1 μg/ml; band at approximately 83 kD
T1 construct: NMC-103, NMC-204 and NMC-303 reacted with the recombinant full-length HDM2 protein; purchased Abcam ab188727
T1 sequence (Q00987 whole entry): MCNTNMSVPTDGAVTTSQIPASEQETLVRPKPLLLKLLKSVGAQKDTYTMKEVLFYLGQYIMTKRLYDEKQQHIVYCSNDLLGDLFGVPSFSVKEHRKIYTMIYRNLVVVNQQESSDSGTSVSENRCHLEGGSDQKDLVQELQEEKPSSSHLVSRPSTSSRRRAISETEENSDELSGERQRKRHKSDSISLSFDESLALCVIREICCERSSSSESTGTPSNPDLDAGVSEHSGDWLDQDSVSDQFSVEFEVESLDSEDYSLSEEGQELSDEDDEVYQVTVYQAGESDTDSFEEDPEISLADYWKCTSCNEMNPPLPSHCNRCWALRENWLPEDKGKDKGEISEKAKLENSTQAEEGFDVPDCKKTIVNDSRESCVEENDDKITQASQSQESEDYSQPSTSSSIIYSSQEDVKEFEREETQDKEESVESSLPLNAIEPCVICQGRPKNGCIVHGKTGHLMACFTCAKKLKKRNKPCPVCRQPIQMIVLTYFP
Protocol: Western Blot: As for immunoblots, 1 μg/well of recombinant HDM2 protein (GST tagged, Abcam, Cat. No. ab188727) was separated on 8-16% sodium dodecyl sulfate (SDS) polyacrylamide gel and proteins were then transferred to polyvinylidene difluoride (PVDF) membrane. The membrane was blocked with 5% milk followed by incubation with monoclonal antibody NMC-103, NMC-204 or NMC-303 at 1 μg/ml in 1% milk in PBS for 2 hours. The membrane was then washed ×3 times (10 minutes each) and incubated for 1 hour with corresponding HRP-conjugated secondary antibody (Goat anti-Mouse IgG (H&L), F(ab′)2 Frag Cross-adsorbed HRP (HRP-GaM F(ab′)2), ThermoFisher, Cat. No. A24524) diluted 1:5000 in 1% BSA-PBS. The membrane was then washed ×3 times and incubated with Pierce ECL Plus Western Blotting Substrate (ThermoFisher, Cat. No. #32132) for 10 min before developing on a LICOR Scanner.

[3] = test system: mouse Lewis Lung LL/2 cancer cells; assay: Flow cytometry (EDTA vs trypsin, intact vs permeabilized); format: cell-based; conditions: for % cells stained: 5 μg/ml antibody; for staining of trypsin-treated permeabilized cells: reduction in binding after trypsin vs reactivity with intracellular target
Protocol: Flow Cytometry Methodology: Cells that had been allowed to grow to about 80% confluency in 25 cm^2 tissue culture flasks were released with either EDTA (10 mmols; pH7.2; 5 min, 37° C.) or Trypsin (Gibco TrypLE Express), fixed with freshly made 4% buffered (pH 7.4) paraformaldehyde for 1 h at room temperature, washed several times with a large volume of ice-cold PBS, and blocked for 30 minutes at room temperature with 5% human serum albumin in PBS (intact, non-permeabilized cells). After establishing viability, the cell number was adjusted to 10^6 cells/ml and kept in ice-cold PBS until staining. Another set of the same cells was released with either EDTA or Trypsin and fixed with 4% buffered paraformaldehyde as above, then washed and blocked with 5% human serum albumin in PBS, and was treated separately with Triton X-100 (0.1% in PBS) (International Biotechnologies Inc. 07100) for 5 minutes at room temperature for membrane permeabilization. After washing off the Triton X-100 solution with PBS the cells were adjusted to 10^6 cells/ml and stored in ice-cold PBS. Cells (10^6/ml) from each preparation were then incubated either with 5 μg/ml of mAb to Na+/K+ ATPase α-1 (Abcam, Cat. No. ab2826), 5 μg/ml of mAb NMC-103, or 5 μg/ml of mAb NMC-204 for 90 min at room temperature. Following primary antibody incubation, cells were washed 3 times with ice-cold PBS followed by incubation with rabbit anti-mouse PE-Cy5 labeled secondary antibody (PE-Cy5-RaM IgG (H&L); Invitrogen, Cat. No. M35018) at room temperature. Sixty minutes later the cells were washed 3 times with PBS and subjected to flow cytometry analysis (BD Canto Flow Cytometry). Controls to establish background fluorescence included the analysis of samples of unstained cells as well as cells that had been processed with secondary antibody under the same conditions as used in the experimental samples.
Cells that had been allowed to grow to about 80% confluency in 75 cm^2 tissue culture flasks were released with either EDTA (10 mmols; pH 7.2; 5 min, 37° C.) or Trypsin (Gibco TrypLE Express), washed several times with ice-cold PBS, and blocked for 20 minutes on ice with 5% human serum albumin in PBS (intact, non-permeabilized cells). After establishing viability, the cell number was adjusted to 10^6 cells/ml and kept in ice-cold PBS until staining. Cells were then incubated with primary antibodies NMC-H103 (VH4/VK3) or NMC-C303 (1 μg/ml) for 30 minutes on ice. Following primary antibody incubation, cells were washed 3 times with ice-cold PBS, followed by incubation with goat anti-human PE labeled secondary antibody (Life technologies H10104) on ice for 20 minutes. Cells were then washed 3 times with PBS and incubated with 7AAD (5 μl/[…] of buffer) before flow cytometry analysis using Fortessa 5.

[4] = EDTA-treated permeabilized cells (Triton X-100)

Molecule	average tumor size ([1]; MC-38, n=5, 10 mg/kg 2 times per week, by day 12) [mm^3]	reduction in tumor volume over the same time period ([1]; MC-38)	tumor reduction at 10 mg/kg compared to 0.4 mg/kg ([1]; MC-38, 10 mg/kg two times per week for three weeks vs FIG. 17)	tumor volume ([1]; MC-38 s.c. in C57BL/6, 0.4 mg/kg i.p. 3 times a week for 2.5 weeks, treated for 18 days (NMC-103 study)) [mm^3]	tumor cells stained positive for Ki67 ([1]; MC-38 tumors, immunohistochemical staining, NMC-103 study, 0.4 mg/kg) [%]	reactivity with recombinant full-length HDM2-GST protein (immunoblot) [2]	% cells stained ([3]; EDTA-treated intact cells) [%]	% cells stained [3, 4] [%]	staining of trypsin-treated permeabilized cells [3]	% cells stained ([3]; trypsin-treated intact cells) [%]	binding to live cells briefly treated with trypsin, flow cytometry ([3]; 7AAD negative)	binding to live (7AAD negative) cells, flow cytometry ([3]; antibody 1 μg/ml)	tumor volume ([1]; MC-38, 0.4 mg/kg i.p. 3 times a week for 3 weeks (NMC-204 study)) [mm^3]	tumor cells stained positively for Ki67 ([1]; MC-38 tumors, NMC-204 study, 0.4 mg/kg) [%]
NMC-103: mouse monoclonal antibody of the IgG1 isotype that binds to NMC-P1 (SEQ ID NO:1); VH SEQ ID NO:36, VL SEQ ID NO:37 (antibody, V domains shown, mAb NMC-103 Heavy Chain Variable Region; mAb NMC-103 Light Chain Variable Region) VH: EVQLQESGGGLVQPGGSLRLSCTTSGFTFTHYYMSWVRQPPGKALEWLGFIRNKAKGYTAEYSASVKGRFTISRDNSQSILYLQMNTLRPEDSATYYCARDIGDNWGQGTLVTVSS VL: DIVMTQAAFSNPVTLGTSASISCRSSKNLLHSNGITYLYWYLQRPGQSPQLLISRVSNLASGVPNRFSGSESGTDFTLRISRVEAEDVGVYFCAQLLELPYTFGGGTKLEIK	210	significant (p<0.005) reduction in tumor volume	greater tumor reduction	1268	5	reacted	70.4	75.8	compensated	36.8	–	–	–	–
NMC-H103 (VH4/VK3): humanized NMC-103 variant, human IgG1, VH4 (SEQ ID NO:299) and VK3 (SEQ ID NO:297) (antibody, V domains shown, human IgG1 constant regions lacking entries; mAb NMC-H103.VH4Heavy Chain Variable Region; mAb NMC-H103.VK3Light Chain Variable Region) VH: EVQLVESGGGLVQPGPSLRLSCTTSGFTFTHYYMSWVRQAPGKGLEWLGFIRNKAKGYTAEYSASVKGRFTISRDNSKSTLYLQMNSLRAEDTAVYYCARDIGDNWGQGTLVTVSS VL: DIVMTQTPLSSPVTLGQPASISCRSSKNLLHSNGITYLYWYLQKPGQSPQLLISRVSNLASGVPDRFSGSESGTDFTLKISRVEAEDVGVYFCAQLLELPYTFGGGTKVEIK	–	–	–	–	–	–	–	–	–	–	reduced	binding	–	–
NMC-204: mouse monoclonal antibody of the IgG3 isotype that binds to NMC-P2 (SEQ ID NO:2); VH SEQ ID NO:38, VL SEQ ID NO:39 (antibody, V domains shown, mAb NMC-204 Heavy Chain Variable Region; mAb NMC-204 Light Chain Variable Region) VH: EVQLQESGSVLVRPGASVKLSCKASGDTLSGSWMHWAMQRPGQGLEWIGEIHLNRGTTNYNEKFKGKATVTVDTSSSTAYVDLSSLTSEDSAVYYCARSPGFAYWGQGTLVTVSA VL: GIVMTQAAPSVPVTPGESVSISCRSSKSLLHSNGNSYLYWFLQRPGQSPQLLIYRMSNLASGVPDRFSGSGSGTAFTLRITRVEAEDVGVYYCMQHLEYPFTFGSGTKLEIK	–	significant (p<0.005) reduction in tumor volume	–	–	–	reacted	51.2	52.85	compensated	27	–	–	1670	30
